The source of these data is patent publication US20020106724A1 (RIKEN, published 2002).

The test has as its target T1, GST alone (UniProt P08515 1-218 = GST).
T1 construct: Control protein in the pull-downs; also called purified GST; glutathione-S-transferase
Description: pull-down of purified His6-tagged fragment with GST fusions, Western blot with anti-Xpress antibody. On the procedure: A His₆-tagged recombinant protein comprising a C-terminal region of SYNCRIP (amino acids 401-561) was expressed in E. coli using pREST plasmid (Invitrogen). The recombinant protein was recovered from inclusion bodies by using a denaturing solution (6 M guanidine-HCl, 10 mM Tris-HCl (pH 8.0), 0.5 M NaCl, 1 mM β-mercapto-ethanol) and purified with ProBond resin. The denatured recombinant protein was refolded by dialysis against 10 mM Tris-HCl (pH 8.0), 10 mM β-mercaptoethanol, 0.1 M NaCl and 1 mM EDTA, with gradual decrease of urea concentration from 6 M to 0.001 M. The dialysate was centrifuged at 12,000 rpm at 4° C. for 20 min to remove the malfolded part and insoluble matter. After aliquots were incubated with various GST-fusion proteins with one of the Syt-II C2 domains, bound proteins were recovered and subjected to Western blotting using anti-Xpress antibody (Invitrogen).

T1 sequence (P08515 whole entry): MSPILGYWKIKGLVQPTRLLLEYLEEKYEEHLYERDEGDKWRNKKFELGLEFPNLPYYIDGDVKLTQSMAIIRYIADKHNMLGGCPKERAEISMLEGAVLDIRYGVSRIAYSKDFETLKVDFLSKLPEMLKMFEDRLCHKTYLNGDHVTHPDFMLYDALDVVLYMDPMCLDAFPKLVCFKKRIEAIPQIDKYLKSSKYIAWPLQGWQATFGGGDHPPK

B1: His6-tagged recombinant protein comprising a C-terminal region of SYNCRIP (amino acids 401-561) (other, not shown: small tags and cut ends)
chain: IEIVFAKPPDQKRKERKAQRQAAKNQMYDDYYYYGPPHMPPPTRGRGRGGRGGYGYPPDYYGYEDYYDYYGYDYHNYRGGYEDPYYGYEDFQVGARGRGGRGARGAAPSRGRGAAPPRGRAGYSQRGGPGSARGVRGARGGAQQQRGRGGKGVEAGPDLLQ
notes: also called C-terminal region of SYBCRIP
As for B1, the binding result is recorded as “no binding”.
